Positions count from the first letter of the chain named. Numbers in names are those of the source. Where two headings read alike, the source gives them in different places. Values belong to the binder of their own block, whether it stands above or below them.
What was measured:
[1] = biological target: T1, hCADM3-GST (human); experiment: SPR (Biacore T-100), antibody captured, hCADM3-GST as analyte
T1 construct: also called extracellular domain of human CADM3 to which GST was added at the C-terminal side; human CADM3-GST
Method: (§1) The affinity of the anti-CADM3 antibodies produced in Example 2 for human CADM3 and mouse CADM3 was measured using Biacore T-100 (GE Healthcare). Each of the antibodies was immobilized on a […] sensor chip using a Human antibody Capture kit, and the binding ability was evaluated using hCADM3-GST and mCADM3-GST produced in Example 4 as analytes.
(§2) The obtained sensorgram was analyzed with BIA evaluation software, and the dissociation constant (KD value) was calculated.

[2] = biological target: T2, mCADM3-GST (mouse); experiment: SPR (Biacore T-100), antibody captured, mCADM3-GST as analyte
T2 construct: also called extracellular domain of mouse CADM3 to which GST was added at the C-terminal side; mouse CADM3-GST
Method: as §1, §2

[3] = biological target: T3, human CADM3 (human, UniProt Q8N126 25-398); experiment: flow cytometry, 10 ug/mL, human CADM3/Expi293F vs parent Expi293F cells
T3 construct: Full-length gene expressed transiently on Expi293F cells; also called cell adhesion molecule 3; human CADM3/Expi293F cells
T3 sequence: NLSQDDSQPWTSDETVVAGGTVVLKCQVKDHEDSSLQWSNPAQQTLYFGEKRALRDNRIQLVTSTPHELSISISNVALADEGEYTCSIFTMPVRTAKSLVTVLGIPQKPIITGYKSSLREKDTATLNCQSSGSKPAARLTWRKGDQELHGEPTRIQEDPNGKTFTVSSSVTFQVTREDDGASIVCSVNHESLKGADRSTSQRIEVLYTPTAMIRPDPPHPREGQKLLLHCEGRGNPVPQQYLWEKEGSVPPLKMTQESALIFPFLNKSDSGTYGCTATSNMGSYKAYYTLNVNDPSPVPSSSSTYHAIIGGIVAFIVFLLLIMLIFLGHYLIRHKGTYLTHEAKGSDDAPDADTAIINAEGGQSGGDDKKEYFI
Method: By using the cells, the reactivity of the antibodies produced in Example 2 with the CADM3-expressing cells was analyzed by a fluorescence activated cell sorting (FACS) method according to the following procedure.
(§3) After washing with SB, the cells were suspended in SB, and the fluorescence intensity of each cell was measured using a flow cytometer FACS CANTO II (manufactured by Becton, Dickinson and Company). Note that as a negative control, 10 μg/mL of the anti-AVM antibody was used.
(§4) The detection results were analyzed, and a mean fluorescence intensity (MFI) was calculated using a geometric mean. Further, with respect to the MFI when the concentration of each antibody was 10 μg/mL, the ratio of the MFI (mean fluorescence intensity ratio) between the human CADM3/Expi293F cells and the Expi293F cells (parent cell line) was calculated.

[4] = biological target: T4, mouse CADM3 (mouse, UniProt Q99N28 23-396); experiment: flow cytometry, 10 ug/mL, mouse CADM3/Expi293F vs parent Expi293F cells
T4 construct: Full-length gene expressed transiently on Expi293F cells; also called mouse CADM3/Expi293F cells; Mouse CADM3-expressing cells
T4 sequence: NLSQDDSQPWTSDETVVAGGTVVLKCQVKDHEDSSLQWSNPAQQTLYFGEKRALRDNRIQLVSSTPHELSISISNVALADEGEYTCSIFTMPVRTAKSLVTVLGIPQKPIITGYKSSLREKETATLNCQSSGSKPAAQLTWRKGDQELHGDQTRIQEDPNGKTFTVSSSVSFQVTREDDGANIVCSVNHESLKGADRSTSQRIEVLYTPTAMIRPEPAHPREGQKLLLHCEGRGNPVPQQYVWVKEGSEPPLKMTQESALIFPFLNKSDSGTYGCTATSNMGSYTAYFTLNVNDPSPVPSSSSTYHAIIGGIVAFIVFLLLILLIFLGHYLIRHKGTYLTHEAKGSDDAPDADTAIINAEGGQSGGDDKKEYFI

[5] = biological target: T4, mouse CADM3; experiment: as above; remark: listed apart in the source
Method: as §3, §4
Further, also with respect to AVM IgG4PE(R409K)_iCADM3_3R1-L5 dVHH, AVM IgG4PE(R409K)_iCADM3_3R1-L8 dVHH, AVM IgG4PE(R409K)_iCADM3_3R1-L10 dVHH, and AVM IgG4PE(R409K)_iCADM3_3R1-L11 dVHH, reactivity with the Expi293F cells, the human CADM3/Expi293F cells, and the mouse CADM3/Expi293F cells was analyzed by the same procedure, and the results are shown in Table 5.

[6] = biological target: T3, human CADM3; experiment: flow cytometry, 10 ug/mL, human CADM3/Expi293F vs parent Expi293F cells; remark: listed apart in the source
Method: as §3, §4
(§5) With respect to the produced humanized anti-CADM3 VHH-Fc antibodies, reactivity with Expi293F cells, human CADM3/Expi293F cells, and mouse CADM3/Expi293F cells was analyzed by the same procedure as in Example 3.

[7] = biological target: T4, mouse CADM3; experiment: flow cytometry, 10 ug/mL, mouse CADM3/Expi293F vs parent Expi293F cells; remark: listed apart in the source
Method: as §3, §4, §5

binding result [1]: binds
binding result [2]: binds
Mean fluorescence intensity ratio [3]: 44.9
Mean fluorescence intensity ratio [4]: 36.1
B1: CADM3501 hG4PE(R409K) (antibody, V domains shown)
VH: EVQLVESGGGLVQPGGALRLSCSASGFTFSGYWMHWVRQAPGKGLEWVSQISSSGTIIDSADFVKGRFAVSRDNAKDLLYLQMNSLRADDTAVYYCARGPLAKNGFDIWGQGTMVTVSS
VL: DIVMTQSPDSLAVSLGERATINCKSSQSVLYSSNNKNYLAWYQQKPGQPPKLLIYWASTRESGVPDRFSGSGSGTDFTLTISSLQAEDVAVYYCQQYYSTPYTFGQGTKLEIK
notes: Human IgG4 variant (S228P, L235E, R409K), vector pCI-hKG4PE(R409K)

binding result [1]: binds
binding result [2]: binds
Mean fluorescence intensity ratio [3]: 9.4
Mean fluorescence intensity ratio [4]: 10.4
B2: CADM3448 hG4PE(R409K) (antibody, V domains shown)
VH: QVQLQQSGPGLVKPAQTLSLTCAISGDSVSSNSVAWNWVRQSPSRGLEWLGRTYYRSQWYNDYAGSVRSRITISADTSKNQFSLQLNSVTPEDTALYYCVRANRKLPAPGQHFYYGMDVWGQGTTVTVSS
VL: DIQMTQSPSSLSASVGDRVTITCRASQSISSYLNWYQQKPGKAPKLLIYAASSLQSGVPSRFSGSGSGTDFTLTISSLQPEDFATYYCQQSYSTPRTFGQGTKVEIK
notes: as for B1

Mean fluorescence intensity ratio [5]: 1.96
B3: AVM IgG4PE(R409K)_iCADM3_3R1-L5 dVHH (bispecific antibody)
heavy: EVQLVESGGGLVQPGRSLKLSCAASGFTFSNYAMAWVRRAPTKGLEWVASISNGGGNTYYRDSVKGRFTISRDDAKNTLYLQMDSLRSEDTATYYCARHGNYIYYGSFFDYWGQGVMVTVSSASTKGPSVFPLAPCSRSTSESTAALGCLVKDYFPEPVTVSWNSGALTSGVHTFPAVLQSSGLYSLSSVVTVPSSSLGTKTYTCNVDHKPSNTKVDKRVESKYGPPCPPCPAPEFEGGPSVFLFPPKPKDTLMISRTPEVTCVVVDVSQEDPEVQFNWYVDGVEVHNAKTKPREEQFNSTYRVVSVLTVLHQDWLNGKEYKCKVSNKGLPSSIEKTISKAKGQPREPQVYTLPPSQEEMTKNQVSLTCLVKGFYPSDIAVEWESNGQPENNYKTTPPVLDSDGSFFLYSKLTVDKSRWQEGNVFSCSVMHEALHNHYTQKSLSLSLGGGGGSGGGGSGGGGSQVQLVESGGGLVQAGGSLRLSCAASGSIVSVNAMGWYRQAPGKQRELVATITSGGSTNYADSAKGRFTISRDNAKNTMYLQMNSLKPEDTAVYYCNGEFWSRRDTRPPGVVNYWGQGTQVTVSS
light: QFVLSQPNSVSTNLGSTVKLSCKRSTGNIGSNYVSWYQQHEGRSPTTMIYRDDKRPDGVPDRFSGSIDRSSDSALLTINNVQTEDEADYFCQSYSSGINIFGGGTKLTVLGQPKAAPSVTLFPPSSEELQANKATLVCLISDFYPGAVTVAWKADSSPVKAGVETTTPSKQSNNKYAASSYLSLTPEQWKSHRSYSCQVTHEGSTVEKTVAPTECS
notes: also called anti-AVM-IgG4-CADM3 VHH bispecific antibody

Mean fluorescence intensity ratio [5]: 3.65
B4: AVM IgG4PE(R409K)_iCADM3_3R1-L8 dVHH (bispecific antibody)
heavy: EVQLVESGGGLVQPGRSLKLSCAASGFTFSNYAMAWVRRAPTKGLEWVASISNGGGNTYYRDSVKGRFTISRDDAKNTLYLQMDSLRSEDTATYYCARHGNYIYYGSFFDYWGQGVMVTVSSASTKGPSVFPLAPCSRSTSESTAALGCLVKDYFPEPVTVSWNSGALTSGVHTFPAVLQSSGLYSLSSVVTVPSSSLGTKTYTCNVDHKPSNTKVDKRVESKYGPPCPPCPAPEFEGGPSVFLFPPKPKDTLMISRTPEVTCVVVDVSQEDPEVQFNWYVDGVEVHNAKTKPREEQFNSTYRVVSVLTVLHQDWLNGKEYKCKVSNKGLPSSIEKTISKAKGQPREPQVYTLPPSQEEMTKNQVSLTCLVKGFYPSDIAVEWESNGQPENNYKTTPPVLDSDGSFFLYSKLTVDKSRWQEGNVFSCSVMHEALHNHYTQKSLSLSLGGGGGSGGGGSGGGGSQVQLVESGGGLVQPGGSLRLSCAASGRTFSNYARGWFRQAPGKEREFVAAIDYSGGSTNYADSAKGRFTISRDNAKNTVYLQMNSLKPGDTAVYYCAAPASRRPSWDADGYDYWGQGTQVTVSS
light: B3 light
notes: as for B3

Mean fluorescence intensity ratio [5]: 1.78
B5: AVM IgG4PE(R409K)_iCADM3_3R1-L10 dVHH (bispecific antibody)
heavy: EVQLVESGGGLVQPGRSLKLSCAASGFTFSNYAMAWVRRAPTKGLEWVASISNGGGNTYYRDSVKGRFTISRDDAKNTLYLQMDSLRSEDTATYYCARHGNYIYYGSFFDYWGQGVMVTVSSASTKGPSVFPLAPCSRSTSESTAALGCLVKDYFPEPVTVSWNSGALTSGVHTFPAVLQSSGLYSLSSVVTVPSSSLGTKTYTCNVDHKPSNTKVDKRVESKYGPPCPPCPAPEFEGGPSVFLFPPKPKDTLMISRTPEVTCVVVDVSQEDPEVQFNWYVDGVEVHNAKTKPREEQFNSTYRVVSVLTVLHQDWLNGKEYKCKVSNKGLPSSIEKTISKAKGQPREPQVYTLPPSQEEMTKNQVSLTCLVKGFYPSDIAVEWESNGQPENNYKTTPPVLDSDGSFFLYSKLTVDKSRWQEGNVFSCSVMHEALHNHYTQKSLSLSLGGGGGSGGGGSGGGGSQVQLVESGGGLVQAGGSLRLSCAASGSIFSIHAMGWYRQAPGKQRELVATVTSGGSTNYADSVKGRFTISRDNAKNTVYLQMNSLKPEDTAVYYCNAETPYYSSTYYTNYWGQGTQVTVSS
light: B3 light
notes: as for B3

Mean fluorescence intensity ratio [5]: 4.66
B6: AVM IgG4PE(R409K)_iCADM3_3R1-L11 dVHH (bispecific antibody)
heavy: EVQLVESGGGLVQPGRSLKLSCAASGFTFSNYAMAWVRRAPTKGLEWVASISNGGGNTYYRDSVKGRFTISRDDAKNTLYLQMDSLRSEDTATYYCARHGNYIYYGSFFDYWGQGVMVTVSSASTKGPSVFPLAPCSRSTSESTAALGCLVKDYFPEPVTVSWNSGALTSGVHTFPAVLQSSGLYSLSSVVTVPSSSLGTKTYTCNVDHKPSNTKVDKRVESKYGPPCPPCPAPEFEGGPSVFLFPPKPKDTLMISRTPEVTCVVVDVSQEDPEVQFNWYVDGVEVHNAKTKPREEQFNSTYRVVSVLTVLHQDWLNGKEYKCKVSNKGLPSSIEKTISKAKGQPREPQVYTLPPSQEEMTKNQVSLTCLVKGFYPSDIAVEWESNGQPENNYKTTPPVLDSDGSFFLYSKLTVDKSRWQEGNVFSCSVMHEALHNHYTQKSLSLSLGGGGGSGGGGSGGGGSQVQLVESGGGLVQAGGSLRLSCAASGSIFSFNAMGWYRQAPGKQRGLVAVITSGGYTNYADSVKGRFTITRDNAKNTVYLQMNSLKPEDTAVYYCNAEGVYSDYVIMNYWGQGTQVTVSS
light: B3 light
notes: as for B3

Mean fluorescence intensity ratio [6]: 12.4
Mean fluorescence intensity ratio [7]: 27.9
B7: iCADM3_3R1-L11_02 VHH-hG4PE(R409K) (Fc fusion)
chain: EVQLVESGGGLIQPGGSLRLSCAASGSTVSFNAMGWYRQAPGKGRVLVAVITSGGYTNYADSVKGRFTISRDNSKNTVYLQMNSLRAEDTAVYYCNAEGVYSDYVIMNYWGQGTLVTVSS
notes: also called iCADM3-3R1-L11_02 humanized antibody; not shown: Hinge-CH2-CH3 region of the human IgG4 heavy chain constant region (IgG4 variant)

Mean fluorescence intensity ratio [6]: 12.2
Mean fluorescence intensity ratio [7]: 12.5
B8: iCADM3_3R1-L11_01 VHH-hG4PE(R409K) (Fc fusion)
chain: B7 chain with R45L, V46G, V78L, Y79F
notes: also called iCADM3-3R1-L11_01 humanized antibody; not shown: Hinge-CH2-CH3 region of the human IgG4 heavy chain constant region (IgG4 variant)

Mean fluorescence intensity ratio [6]: 24.4
Mean fluorescence intensity ratio [7]: 33.8
B9: iCADM3_3R1-L11_03 VHH-hG4PE(R409K) (Fc fusion)
chain: B7 chain with G44Q, V46G, A49S
notes: also called iCADM3-3R1-L11_03 humanized antibody; not shown: Hinge-CH2-CH3 region of the human IgG4 heavy chain constant region (IgG4 variant)
